{
  "source": "patent US20210395357A1",
  "about": "(IPHASE PHARMA SERVICE, published 2021)",
  "key": {"[1]": {"biological_target": "T1, rhIL-6-His (recombinant human IL-6, Val30 to Met212, C-terminal 6 His) (human, UniProt P05231 30-212)", "T1 sequence (P05231 other isoform, or with tags, fused parts or gaps limits assumed)": "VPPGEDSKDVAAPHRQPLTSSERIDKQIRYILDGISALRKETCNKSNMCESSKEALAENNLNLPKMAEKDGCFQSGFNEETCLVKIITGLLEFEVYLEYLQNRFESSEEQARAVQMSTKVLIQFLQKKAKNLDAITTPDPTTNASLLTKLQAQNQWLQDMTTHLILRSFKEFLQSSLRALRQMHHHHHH", "assay": "BLI, ForteBio Blitz"}, "[2]": {"biological_target": "T1, rhIL-6-His (recombinant human IL-6, …)", "assay": "competition ELISA: antibody pre-incubated with rhIL-6-His, binding to coated rhIL-6R detected with anti-His-HRP", "experimental": "The rhIL-6R (Sino Biological, 10398-H02H) antigen was diluted with PBS (pH=8.6) to 1.5 μg/ml, added to a microtiter plate A at 100 μl/well, coated overnight at 4° C., and blocked at 37° C. for 2 hour by adding 300 μl/well of 3% BSA after washing the plate for 4 times with PBST. […] The plate A was washed once with PBST, added with the mixture in plate B, and incubated at 37° C. for 1 hour. The plate A was washed for 4 times with PBST, added with 100 μl/well of HRP (horseradish peroxidase) labeled anti-His antibody (ProteinTech, HRP-66005), and incubated at 37° C. for 1 hour. The plate was washed for 4 times with PBST, added with 100 μl/well of TMB color-developing solution (Zuman Bio, ZD311), and incubated at 37° C. for 15 minutes for color development; 50 μl/well of stop solution (1M sulfuric acid) was added, and the absorbance value at 450 nm wavelength was measured on the microplate reader (BioTek, ELx808)."}, "[3]": {"biological_target": "T1, rhIL-6-His (recombinant human IL-6, …)", "assay": "ELISA, rhIL-6-His coated at 1 µg/ml, anti-human IgG-HRP", "experimental": "The rhIL-6-His antigen was diluted with PBS (pH=8.6) to 1 μg/ml, added to a microtiter plate at 100 μl/well, coated overnight at 4° C., and blocked at 37° C. for 2 hour by adding 300 μl/well of 3% BSA after washing the plate 4 times with PBST. […] The plate was washed for 4 times with PBST, added with HRP (horseradish peroxidase) labeled goat anti-human IgG antibody (ProteinTech, SA00001-1), and incubated at 37° C. for 1 hour. The plate was washed for 4 times with PBST, added with 100 μl/well of TMB color-developing solution (Zuman Bio, ZD311), and incubated at 37° C. for 15 minutes; after color development, 50 μl/well of stop solution (1M sulfuric acid) was added, and the absorbance value at 450 nm wavelength was measured on the microplate reader (BioTek, ELx808)."}, "[4]": {"biological_target": "T1, rhIL-6-His (recombinant human IL-6, …)", "assay": "cell-based or functional assay"}},
  "data": [
    {"binder": "HZ-0408d (antibody, human IgG1, kappa, V domains shown, Humanized from murine 140-4; IgG1 type antibody from 293F cells; also called L3/H3) VH: QVTLKESGPVLVKPTETLTLTCTVSGFSLSTSGMGVGWIRQPPGKALEWLAHIWWDDDKRYNSALKSRLTISKDTSKSQVVLTMTNMDPVDTATYYCARIGGLYVDYLMDYWGQGTLVTVSS VL: DIQMTQSPSSLSASVGDRVTITCRASQSISDYLHWYQQKPGKAPKLLIYYASQSISGVPSRFSGSGSGTDFTLTISSLQPEDFATYYCQNGHSFPWTFGQGTKVEIKR", "values": [
      {"measurement": "kon", "setting": "[1]", "result": 93200, "unit": "M⁻¹ s⁻¹"},
      {"measurement": "IC50", "setting": "[2]", "result": 3.04, "unit": "mg/L"},
      {"measurement": "EC50", "setting": "[3]", "result": 0.39, "unit": "mg/L"},
      {"measurement": "concentration of SAA in supernatant of rhIL-6 stimulated HepG2 cells at 100 µg/mL antibody", "setting": "[4]", "result": 85, "unit": "ng/mL"},
      {"measurement": "concentration that inhibits IL-6-stimulated phosphorylation of p-Stat3 (Tyr705) in DLD-1 cells, Western blot", "setting": "[4]", "result": 32, "unit": "µg/mL"}
    ]},
    {"binder": "Siltuximab (antibody, V domains shown) VH: EVQLVESGGKLLKPGGSLKLSCAASGFTFSSFAMSWFRQSPEKRLEWVAEISSGGSYTYYPDTVTGRFTISRDNAKNTLYLEMSSLRSEDTAMYYCARGLWGYYALDYWGQGTSVTVSS VL: QIVLIQSPAIMSASPGEKVTMTCSASSSVSYMYWYQQKPGSSPRLLIYDTSNLASGVPVRFSGSGSGTSYSLTISRMEAEDAATYYCQQWSGYPYTFGGGTKLEIK", "values": [
      {"measurement": "kon", "setting": "[1]", "result": 28900, "unit": "M⁻¹ s⁻¹"},
      {"measurement": "IC50", "setting": "[2]", "result": 12.5, "unit": "mg/L"},
      {"measurement": "EC50", "setting": "[3]", "result": 67.3, "unit": "mg/L"},
      {"measurement": "concentration of SAA in supernatant of rhIL-6 stimulated HepG2 cells at 100 µg/mL antibody", "setting": "[4]", "result": 148, "unit": "ng/mL"},
      {"measurement": "concentration that inhibits IL-6-stimulated phosphorylation of p-Stat3 (Tyr705) in DLD-1 cells, Western blot", "setting": "[4]", "result": 64, "unit": "µg/mL"}
    ]},
    {"binder": "HZ-0408a (antibody, human IgG1, kappa, V domains shown, Humanized from murine 140-4; expressed in 293F cells and captured on Protein A as an IgG1 type antibody; also called L1/H2) VH: QVTLKESGPALVKPTQTLTLTCTFSGFSLSTSGMGVGWIRQPPGKALEWLAHIWWDDDKRYNSALKSRLTISKDTSKNQVVLTMTNMDPVDTATYYCARIGGLYVDYLMDYWGQGTLVTVSS VL: EIVLTQSPDFQSVTPKEKVTITCRASQSISDYLHWYQQKPDQSPKLLIKYASQSISGVPSRFSGSGSGTDFTLTINSLEAEDAATYYCQNGHSFPWTFGQGTKVEIKR", "values": [
      {"measurement": "kon", "setting": "[1]", "result": 128000, "unit": "M⁻¹ s⁻¹"},
      {"measurement": "IC50", "setting": "[2]", "result": 0.72, "unit": "mg/L"},
      {"measurement": "EC50", "setting": "[3]", "result": 0.16, "unit": "mg/L"},
      {"measurement": "concentration of SAA in supernatant of rhIL-6 stimulated HepG2 cells at 100 µg/mL antibody", "setting": "[4]", "result": 30.5, "unit": "ng/mL"},
      {"measurement": "concentration that inhibits IL-6-stimulated phosphorylation of p-Stat3 (Tyr705) in DLD-1 cells, Western blot", "setting": "[4]", "result": 2, "unit": "µg/mL"}
    ]},
    {"binder": "HZ-0408b (antibody, human IgG1, kappa, V domains shown, Humanized from murine 140-4; IgG1 type antibody from 293F cells; also called L1/H3) VH: QVTLKESGPVLVKPTETLTLTCTVSGFSLSTSGMGVGWIRQPPGKALEWLAHIWWDDDKRYNSALKSRLTISKDTSKSQVVLTMTNMDPVDTATYYCARIGGLYVDYLMDYWGQGTLVTVSS VL: EIVLTQSPDFQSVTPKEKVTITCRASQSISDYLHWYQQKPDQSPKLLIKYASQSISGVPSRFSGSGSGTDFTLTINSLEAEDAATYYCQNGHSFPWTFGQGTKVEIKR", "values": [
      {"measurement": "kon", "setting": "[1]", "result": 233000, "unit": "M⁻¹ s⁻¹"},
      {"measurement": "IC50", "setting": "[2]", "result": 0.53, "unit": "mg/L"},
      {"measurement": "EC50", "setting": "[3]", "result": 0.09, "unit": "mg/L"},
      {"measurement": "concentration of SAA in supernatant of rhIL-6 stimulated HepG2 cells at 100 µg/mL antibody", "setting": "[4]", "result": -2.5, "unit": "ng/mL"},
      {"measurement": "concentration that inhibits IL-6-stimulated phosphorylation of p-Stat3 (Tyr705) in DLD-1 cells, Western blot", "setting": "[4]", "result": 2, "unit": "µg/mL"}
    ]},
    {"binder": "HZ-0408c (antibody, human IgG1, kappa, V domains shown, Humanized from murine 140-4; IgG1 type antibody from 293F cells; also called L2/H3) VH: QVTLKESGPVLVKPTETLTLTCTVSGFSLSTSGMGVGWIRQPPGKALEWLAHIWWDDDKRYNSALKSRLTISKDTSKSQVVLTMTNMDPVDTATYYCARIGGLYVDYLMDYWGQGTLVTVSS VL: EIVLTQSPATLSLSPGERATLSCRASQSISDYLHWYQQKPGQAPRLLIYYASQSISGIPARFSGSGSGTDFTLTISSLEPEDFAVYYCQNGHSFPWTFGQGTKVEIKR", "values": [
      {"measurement": "kon", "setting": "[1]", "result": 74300, "unit": "M⁻¹ s⁻¹"},
      {"measurement": "IC50", "setting": "[2]", "result": 1.29, "unit": "mg/L"},
      {"measurement": "EC50", "setting": "[3]", "result": 0.18, "unit": "mg/L"},
      {"measurement": "concentration of SAA in supernatant of rhIL-6 stimulated HepG2 cells at 100 µg/mL antibody", "setting": "[4]", "result": 12.5, "unit": "ng/mL"},
      {"measurement": "concentration that inhibits IL-6-stimulated phosphorylation of p-Stat3 (Tyr705) in DLD-1 cells, Western blot", "setting": "[4]", "result": 8, "unit": "µg/mL"}
    ]}
  ]
}
